From the supplement of paper PMC6755084

B1: F1*; the commonest letter at each place (parent)
chain: GAGACCGCAACTGAAAAGTTGTTATCACTTGTCGTAAGACACTTTGGATGGGTTGAAGTTCTGCACGTAGAAGCAAAAGGC

Variants of: B1
Test: fraction ligated after 30 min (ligated reads / total reads); higher = more ligase activity
Settings: with F1*sub RNA substrate (template-directed ligation), 42 °C
Procedure, shortened: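 Oligo-pool templates of ligase ribozyme variants were PCR-amplified, T7-transcribed and gel-purified. Ligated and unligated bands were gel-separated, reverse transcribed with barcoded primers, and MiSeq-sequenced; core bases were filtered at quality ≥20. Fraction ligated per variant was ligated reads over total reads.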
Work on GAGACCGCAACTGAAAAGTTGTTATCACGTGTTGTAAGACACTTTGGATGGGTTGAAGTTCTGCACGTAGAAGCAAAAGGC yielded a fraction ligated of 0.808. GAGACCGCAACTGAAAAGTTGTTATCACGTGTCGTAAGAAACTTTGGATGGGTTGAAGTTCTGCACGTAGAAGCAAAAGGC showed a fraction ligated of 0.84. Work on GAGACCGCAACTGAAAAGTTGTTATCACGTGTCGTAAGAGACTTTGGATGGGTTGAAGTTCTGCACGTAGAAGCAAAAGGC yielded a fraction ligated of 0.83. GAGACCGCAACTGAAAAGTTGTTATCACGTGTCGTAAGATACTTTGGATGGGTTGAAGTTCTGCACGTAGAAGCAAAAGGC gave a fraction ligated of 0.809. With GAGACCGCAACTGAAAAGTTGTTATCACGTGTCGTAAGACAATTTGGATGGGTTGAAGTTCTGCACGTAGAAGCAAAAGGC the fraction ligated was 0.813. GAGACCGCAACTGAAAAGTTGTTATCACGTGTCGTAAGACAGTTTGGATGGGTTGAAGTTCTGCACGTAGAAGCAAAAGGC showed a fraction ligated of 0.839. Work on GAGACCGCAACTGAAAAGTTGTTATCACGTGTCGTAAGACATTTTGGATGGGTTGAAGTTCTGCACGTAGAAGCAAAAGGC yielded a fraction ligated of 0.83. GAGACCGCAACTGAAAAGTTGTTATCACGTATCGTAAGACACTTTGGATGGGTTGAAGTTCTGCACGTAGAAGCAAAAGGC gave a fraction ligated of 0.836. In the case of GAGACCGCAACTGAAAAGTTGTTATCACGTCTCGTAAGACACTTTGGATGGGTTGAAGTTCTGCACGTAGAAGCAAAAGGC, the fraction ligated is reported as 0.804. Work on GAGACCGCAACTGAAAAGTTGTTATCACGTTTCGTAAGACACTTTGGATGGGTTGAAGTTCTGCACGTAGAAGCAAAAGGC yielded a fraction ligated of 0.835. GAGACCGCAACTGAAAAGTTGTTATCACGTGTCATAAGACACTTTGGATGGGTTGAAGTTCTGCACGTAGAAGCAAAAGGC showed a fraction ligated of 0.824. Variant GAGACCGCAACTGAAAAGTTGTTATCACGTGTCCTAAGACACTTTGGATGGGTTGAAGTTCTGCACGTAGAAGCAAAAGGC has a fraction ligated of 0.808. GAGACCGCAACTGAAAAGTTGTTATCACGTGTCTTAAGACACTTTGGATGGGTTGAAGTTCTGCACGTAGAAGCAAAAGGC was tested, and the fraction ligated was 0.83. For GAGACCGCAACTGAAAAGTTGTTATCACGTGTCGTAAAACACTTTGGATGGGTTGAAGTTCTGCACGTAGAAGCAAAAGGC, the fraction ligated was 0.844. GAGACCGCAACTGAAAAGTTGTTATCACGTGTCGTAACACACTTTGGATGGGTTGAAGTTCTGCACGTAGAAGCAAAAGGC showed a fraction ligated of 0.844. Work on GAGACCGCAACTGAAAAGTTGTTATCACGTGTCGTAATACACTTTGGATGGGTTGAAGTTCTGCACGTAGAAGCAAAAGGC yielded a fraction ligated of 0.855. Work on GAGACCGCAACTGAAAAGTTGTTATCACGTGTCGTAAGACACTTTAGATGGGTTGAAGTTCTGCACGTAGAAGCAAAAGGC yielded a fraction ligated of 0.832. Work on GAGACCGCAACTGAAAAGTTGTTATCACGTGTCGTAAGACACTTTCGATGGGTTGAAGTTCTGCACGTAGAAGCAAAAGGC yielded a fraction ligated of 0.786. Work on GAGACCGCAACTGAAAAGTTGTTATCACGTGTCGTAAGACACTTTTGATGGGTTGAAGTTCTGCACGTAGAAGCAAAAGGC yielded a fraction ligated of 0.805. GAGACCGCAACTGAAAAGTTGTTATCACGTGTCGTAAGACACTTTGAATGGGTTGAAGTTCTGCACGTAGAAGCAAAAGGC gave a fraction ligated of 0.816. With GAGACCGCAACTGAAAAGTTGTTATCACGTGTCGTAAGACACTTTGCATGGGTTGAAGTTCTGCACGTAGAAGCAAAAGGC the fraction ligated was 0.696. Work on GAGACCGCAACTGAAAAGTTGTTATCACGTGTCGTAAGACACTTTGTATGGGTTGAAGTTCTGCACGTAGAAGCAAAAGGC yielded a fraction ligated of 0.738. GAGACCGCAACTGAAAAGTTGTTATCACGTGTCGTAAGACACTTTGGATAGGTTGAAGTTCTGCACGTAGAAGCAAAAGGC gave a fraction ligated of 0.345. GAGACCGCAACTGAAAAGTTGTTATCACGTGTCGTAAGACACTTTGGATCGGTTGAAGTTCTGCACGTAGAAGCAAAAGGC gave a fraction ligated of 0.243. With GAGACCGCAACTGAAAAGTTGTTATCACGTGTCGTAAGACACTTTGGATTGGTTGAAGTTCTGCACGTAGAAGCAAAAGGC the fraction ligated was 0.683. Variant GAGACCGCAACTGAAAAGTTGTTATCACGTGTCGTAAGACACTTTGGATGGGTTAAAGTTCTGCACGTAGAAGCAAAAGGC has a fraction ligated of 0.79. Variant GAGACCGCAACTGAAAAGTTGTTATCACGTGTCGTAAGACACTTTGGATGGGTTCAAGTTCTGCACGTAGAAGCAAAAGGC has a fraction ligated of 0.584. With GAGACCGCAACTGAAAAGTTGTTATCACGTGTCGTAAGACACTTTGGATGGGTTTAAGTTCTGCACGTAGAAGCAAAAGGC the fraction ligated was 0.792. GAGACCGCAACTGAAAAGTTGTTATCACGAGTCGTAAGACACTTTGGATGGGTTGAAGTTCTGCACGTAGAAGCAAAAGGC showed a fraction ligated of 0.823. Variant GAGACCGCAACTGAAAAGTTGTTATCACGCGTCGTAAGACACTTTGGATGGGTTGAAGTTCTGCACGTAGAAGCAAAAGGC has a fraction ligated of 0.828. GAGACCGCAACTGAAAAGTTGTTATCACGGGTCGTAAGACACTTTGGATGGGTTGAAGTTCTGCACGTAGAAGCAAAAGGC showed a fraction ligated of 0.844. With GAGACCGCAACTGAAAAGTTGTTATCACGTGACGTAAGACACTTTGGATGGGTTGAAGTTCTGCACGTAGAAGCAAAAGGC the fraction ligated was 0.821. Variant GAGACCGCAACTGAAAAGTTGTTATCACGTGCCGTAAGACACTTTGGATGGGTTGAAGTTCTGCACGTAGAAGCAAAAGGC has a fraction ligated of 0.809. Variant GAGACCGCAACTGAAAAGTTGTTATCACGTGGCGTAAGACACTTTGGATGGGTTGAAGTTCTGCACGTAGAAGCAAAAGGC has a fraction ligated of 0.832.
